Sequences and labels used below:
B1: TPR t1 (parent)
chain: GACCAAUCUGCCCUCAGAGCUCGAGAACAUCUUCGGAUGCAGAGGAGGCAGGCUUCGGUGGCGCGAUAGCGCCAACGUCCUCAACCUCCAAUGCAUCCCACCACAUGAUGAUGCCUGAAGAGCCUUGGUUUUUUG

The source of these data is the RNAGym collection of RNA variant scans (doi:10.1073/pnas.2313332121).

This data set covers variants of B1. Nature of the data set: polymerase ribozyme fitness, log enrichment relative to wild type (log ratio); higher = more active; in vitro selection for triplet polymerase activity. The procedure, abridged:
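Each subunit of a heterodimeric triplet polymerase ribozyme was represented by a PCR-built, transcribed mutant library that underwent triplicate single-round in vitro selection with frozen incubation at −7 °C. Extended constructs were recovered by gel excision, streptavidin-bead capture and RT-PCR, and Illumina sequencing of input and output libraries kept genotypes with ≥10 input reads and ≥1 read per output. Fitness is the logarithm of genotype enrichment relative to wild-type enrichment, from inverse-variance-weighted replicate averages, with a logarithm base of 2.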
On to A16U A37U C97U, for which the “polymerase ribozyme fitness (log ratio)” value was -5.8.
The figure for A16U G69U G77A U116A is -1.32; for C15U C56G it is -2.76; for C15U C56A it is -1.78.
Consider A16U G47U G69C, for which the “polymerase ribozyme fitness (log ratio)” value is -3.2.
The figure for C15U C34U is -4.93.
As for C15U G35A A66U U109A U116A, the figure is -5.44; as for C15U C56A C72A C79G, -2.96; as for A16C G77C G120U C123U, -2.57.
As for C15U C20U G42A A43C G113A, the figure is -1.99; as for C15U A41U G69C C82A U112A C124A, -3.69; as for C15U G25U A26U G51A C99U U112G C114G G135A, -6.73.
In the case of C15U U59G C70U C104A, the “polymerase ribozyme fitness (log ratio)” value is -4.32.
C15U U21A G63U: the “polymerase ribozyme fitness (log ratio)” value was -2.12.
Turning to C15U A43G G57U C85A G93U G120C, the “polymerase ribozyme fitness (log ratio)” value was -4.37.
As for C15U G23U G47A C49U C62U G65A A111C, the figure is -6.66; as for C15U G58A G61U, -1.4; as for A16U C64U U87A U112A A118G, -2.35.
As for A16U C64A C89A A111G U130G, the figure is -5.81.
The figure for A16U C70A A74U is -4.08.
As for A16C C22U, the “polymerase ribozyme fitness (log ratio)” value was -5.8.
The figure for A16C U55G C123G is -0.307; for C15U G110A it is -2.25; for A16C G47U it is -3.93.
For A16U G93A U133A, the “polymerase ribozyme fitness (log ratio)” value was -2.82.
The figure for A16U G36C C62A A121C is -1.88.
The figure for C15U C62U is -1.95.
Regarding C15U C62A, the “polymerase ribozyme fitness (log ratio)” value is -2.1.
As for C15U U54A A105U U112C, the figure is -2.79.
The figure for C15U G60C G117A is 0.583; for A16G C97G U116C it is -2.75; for A16U A37U C56G it is -3.71.
As for A16U G117U C123A, the figure is -4.24; as for A16G G39U C53G, -2.41.
Turning to C15U A74C A75G C115A, the “polymerase ribozyme fitness (log ratio)” value is -3.69.
For C15U U96A, the “polymerase ribozyme fitness (log ratio)” value is -1.57.
As for A16U C20A C62U A83C G120A, the figure is -6.31.
The figure for C15U A50U C73U A118U G127A is -5.35; for C15U A84C it is -1.68; for A16U A26U it is -4.8.
As for C15U C20A G42A C124A U130C, the figure is -2.95; as for C15U A50U G71A C89U, -5.22; as for A16G C49A C79U G93A G117U C123G, -2.9.
In the case of A16C G45U, the “polymerase ribozyme fitness (log ratio)” value was -4.66.
For C15U C73A U78A C86G, the “polymerase ribozyme fitness (log ratio)” value is -2.43.
The figure for C15U G36C A50C C72U C124G is -0.154.
As for A16G A37U G71U A90G, the figure is -1.9; as for A16U A41G G44A G117C, -4.44.
The figure for A16U C40A A100U is -3.86; for C15U A46G A84U U112A G113U G120U it is -4.78.
C15U A37G C70U A100U A121C C123U: the “polymerase ribozyme fitness (log ratio)” value is -1.4.
As for C15U C70U U81A G113A G117A, the “polymerase ribozyme fitness (log ratio)” value is -4.22.
With C15U U78C C79G C124G U131A, the “polymerase ribozyme fitness (log ratio)” value was 0.897.
The figure for A16C U109A U116G is -6.51.
With A16C U33C C62G U81A A108G G120A C123G, the “polymerase ribozyme fitness (log ratio)” value was -6.36.
As for A16U G71U U106G A111U, the figure is -5.64; as for C15U A41G G52U C62U A119U, -2.59.
The figure for A16C C73U C115G is -3.06; for C15U G127U it is -2.39; for C15U C72U G110C it is -5.35.
Regarding C15U U106A, the “polymerase ribozyme fitness (log ratio)” value is -1.69.
The figure for A16U G42U U130C is -3.77; for C15U G58A C79U it is -2.08.
As for A16U C88U, the figure is -1.68.
As for C15U C62G C82A, the figure is -2.4.
As to A16G C72G, the “polymerase ribozyme fitness (log ratio)” value is -1.66.
As for A16U G17U C124A, the figure is -1.9; as for C15U C64A C79A C98A G117U, -6.93; as for A16C C70U C85G, -3.97.
Turning to A16G G39A C115A, the “polymerase ribozyme fitness (log ratio)” value is -2.22.
In the case of A16U A37G, the “polymerase ribozyme fitness (log ratio)” value was -2.1.
The figure for A16U A37U is -2.13.
As for A16C A90C, the figure is -4.52; as for C15U C53U G69U, -0.102; as for C15U C28U C89A C123A, -5.8.
Turning to C15U C64U G117U G120A, the “polymerase ribozyme fitness (log ratio)” value was -1.73.
As for A16U G127U, the figure is -2.81.
The figure for A16G G61A A74C U78G U112A is -4.17.
As for C15U G60A U81G C82G A119G G120U C123A, the figure is -1.78; as for A16G A27U, -4.63; as for A16C C73G U116C G135U, -3.68.
As to A16U U106A, the “polymerase ribozyme fitness (log ratio)” value was -2.08.
For C15U C72A, the “polymerase ribozyme fitness (log ratio)” value was -1.07.
